These results are taken from patent US4609623A, “Microbiologically produced D-2-hydroxy-4-methylpentanoic acid dehydrogenase, process for its production and its use” (Degussa AG, priority 1983, dated 1986).

For series [1], the target named is T1, D-2-hydroxy-4-methylpentanoic acid dehydrogenase (Lacticaseibacillus paracasei, UniProt P17584).
T1 sequence (P17584 1-333): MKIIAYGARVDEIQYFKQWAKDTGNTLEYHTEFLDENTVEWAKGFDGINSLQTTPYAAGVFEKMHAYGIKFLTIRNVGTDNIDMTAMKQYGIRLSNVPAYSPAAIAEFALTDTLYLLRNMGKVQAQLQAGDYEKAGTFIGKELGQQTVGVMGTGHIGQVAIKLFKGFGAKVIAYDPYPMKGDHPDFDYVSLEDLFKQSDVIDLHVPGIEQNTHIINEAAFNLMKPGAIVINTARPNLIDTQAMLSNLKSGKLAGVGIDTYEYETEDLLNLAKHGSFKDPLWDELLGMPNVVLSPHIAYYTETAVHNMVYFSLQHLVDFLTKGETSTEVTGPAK
Nature of the series: Reduction of 2-ketocarboxylic acids in an enzyme membrane reactor with PEG-NADH, polarimetric read-out. The series is classed as biochemical, Lactobacillus casei ssp. pseudoplantarum (DSM 20008). The arrangement: endogenous in cells; host or cells: Lactobacillus casei ssp. pseudoplantarum DSM 20008, enzyme isolated from the cells grown in house. To be noted: 7.0 mM 2-ketocarboxylic acid feed, stationary value; for Rotation of Production Solution: 463 nm, 25° C. As for the experimental part:
(Preparation according to DE-PS 28 41 414). The following keto acids were converted individually in the reactor:
2-keto-4-methylpentanoic acid (sodium salt), 2-keto-4-(methylmercapto)-butyric acid (sodium salt) and phenyl pyruvate (sodium salt). The product stream flowing out of the membrane reactor was analyzed continuously in a polarimeter. The signals obtained were evaluated by means of calibration curves which had been obtained from optically active 2-hydroxy acids.
The PEG-NADH is prepared according to DE-PS No. 28 41 414. […] The reactor volume is kept constant, by adding keto acid and sodium formate buffer from a reservoir at the same rate as the ultrafiltrate leaves the reactor. The reactor volume was 10 ml, the concentration of PEG-NADH 0.20 mM, and 9 U D-2-hydroxy-4-methylpentanoic acid dehydrogenase (27 U/mg) and 30 U formate-dehydrogenase were fed into the reactor. The substrate solution contained 300 mM sodium formate buffer of pH 7.0 and 7.0 mM of the corresponding 2-ketocarboxylic acid. The reaction solution was pumped over the membrane continuously with a peristaltic pump at 30 ml/hour. About 3 ml ultrafiltrate per hour was obtained. The ultrafiltrate was led continuously through a polarimeter cell (Perkin Elmer Type 241). The determinations were carried out at 463 nm and 25° C. From the measured rotatory value, the product concentration was determined from a calibration curve. The calibration curves were prepared with optically active 2-hydroxycarboxylic acids in 300 mM sodium formate buffer of pH 7.0. For this, the following preparations were used: L-phenyllactic acid (Sigma Company, Munich), L-2-hydroxy-4-methylpentanoic acid (Sigma Company, Munich), and D-2-hydroxy-4-(methylmercapto)-butyric acid (Degussa Company, Hanau). The conversion in the membrane reactor was followed over a period of 15 hours.

Series [2] concerns the target T1, D-2-hydroxy-4-methylpentanoic acid dehydrogenase. Nature of the series: Dehydrogenation kinetics: reaction velocity versus NAD+ and 2-hydroxycarboxylic acid concentration. As for the experimental part: The dependence of the reaction velocity on the NAD^+ concentration in the dehydrogenation of D-2-hydroxy-4-methylpentanoic acid was studied in the following test mixture: 0.1M phosphate buffer at pH 8.0, 12 mM D,L-2-hydroxy-4-methylpentanoic acid, limiting quantities of enzyme.
The dependence of the reaction speed on the concentration of different 2-hydroxycarboxylic acids for the dehydrogenation of D-2-hydroxycarboxylicacids was tested in the following test mixture: 0.1M phosphate buffer at pH 8.0, 4.5 mM NAD^+ and limiting quantities of enzyme. The concentration of D-2-hydroxycarboxylic acid was varied in the range from 0.1 to a maximum of 30 mM. Inasmuch as no chiral D-2-hydroxycarboxylic acid was available, the racemate was added. […] The initial reaction velocity was evaluated according to Michaelis-Menten, and the kinetic constants Vmax and KM determined by non-linear regression.

Series [3] shares this target. As to the kind of experiment: Reduction kinetics: reaction velocity versus NADH and 2-ketocarboxylic acid concentration. The series is classed as biochemical, Lactobacillus casei ssp. pseudoplantarum. The arrangement: endogenous in cells; host or cells: Lactobacillus casei ssp. pseudoplantarum DSM 20008, enzyme isolated from the cells grown in house. The method, then: The reaction speed for reduction of different 2-ketocarboxylic acids was also investigated as a function of the keto acid concentration. […] The ketocarboxylic acid concentration was in each case varied from 0.01 to a maximum of 60 mM. The initial reaction velocity, change of extinction at 340 nm/min, was evaluated by non-linear regression of the Michaelis-Menten equation.

Substrate in series [4]: CCC(C)C(=O)C(=O)O
As to the kind of experiment: purified protein, by the assay type. Format: biochemical, Lactobacillus casei ssp. pseudoplantarum. To be noted: other: reduction, pH 7.0, 0.1 mM NADH.

Substrate in series [5]: CSCCC(=O)C(=O)O
Nature of the series: purified protein, by the assay type. The series is classed as biochemical, Lactobacillus casei ssp. pseudoplantarum. To be noted: other: reduction, pH 7.0, 0.1 mM NADH.

Substrate in series [6]: CC(C)CC(=O)C(=O)O
As to the kind of experiment: purified protein, by the assay type. Format: biochemical, Lactobacillus casei ssp. pseudoplantarum. To be noted: other: reduction, pH 7.0, 0.1 mM NADH.

Substrate in series [7]: O=C(O)C(=O)CS
Nature of the series: purified protein, by the assay type. To be noted: other: reduction, pH 7.0, 0.1 mM NADH. The series is classed as biochemical, Lactobacillus casei ssp. pseudoplantarum.

Substrate in series [8]: CCCC(=O)C(=O)O
Nature of the series: purified protein, by the assay type. Format: biochemical, Lactobacillus casei ssp. pseudoplantarum. To be noted: other: reduction, pH 7.0, 0.1 mM NADH.

Substrate in series [9]: CC(C)C(=O)C(=O)O
As to the kind of experiment: purified protein, by the assay type. Format: biochemical, Lactobacillus casei ssp. pseudoplantarum. To be noted: other: reduction, pH 7.0, 0.1 mM NADH.

Substrate in series [10]: CCCCC(=O)C(=O)O
Nature of the series: purified protein, by the assay type. The series is classed as biochemical, Lactobacillus casei ssp. pseudoplantarum. To be noted: other: reduction, pH 7.0, 0.1 mM NADH.

Substrate in series [11]: CCCCCCC(=O)C(=O)O
As to the kind of experiment: purified protein, by the assay type. Format: biochemical, Lactobacillus casei ssp. pseudoplantarum. To be noted: other: reduction, pH 7.0, 0.1 mM NADH.

Substrate in series [12]: CCC(=O)C(=O)O
As to the kind of experiment: purified protein, by the assay type. To be noted: other: reduction, pH 7.0, 0.1 mM NADH. The series is classed as biochemical, Lactobacillus casei ssp. pseudoplantarum.

Substrate in series [13]: O=C(O)C(=O)Cc1ccccc1
Nature of the series: purified protein, by the assay type. To be noted: other: reduction, pH 7.0, 0.1 mM NADH.

Substrate in series [14]: CCCCC(O)C(=O)O
Nature of the series: purified protein, by the assay type. To be noted: other: dehydrogenation, pH 8.0, 4.5 mM NAD+, calculated assuming 50% D-acid in the racemic mixtures.

Substrate in series [15]: NC(=O)C1=CN([C@@H]2O[C@H](COP(=O)(O)OP(=O)(O)OC[C@H]3O[C@@H](n4cnc5c(N)ncnc54)[C@H](O)[C@@H]3O)[C@@H](O)[C@H]2O)C=CC1
Nature of the series: purified protein, by the assay type. To be noted: other: pH 7.0, 0.7 mM 2-keto-4-methylpentanoic acid.

Substrate in series [16]: CCCCCCC(O)C(=O)O
As to the kind of experiment: purified protein, by the assay type. To be noted: other: dehydrogenation, pH 8.0, 4.5 mM NAD+, calculated assuming 50% D-acid in the racemic mixtures.

Substrate in series [17]: NC(=O)c1ccc[n+]([C@@H]2O[C@H](COP(=O)([O-])OP(=O)(O)OC[C@H]3O[C@@H](n4cnc5c(N)ncnc54)[C@H](O)[C@@H]3O)[C@@H](O)[C@H]2O)c1
As to the kind of experiment: purified protein, by the assay type. To be noted: other: pH 8.0, 12 mM D,L-2-hydroxy-4-methylpentanoic acid.

Substrate in series [18]: O=C(O)C(O)Cc1ccccc1
As to the kind of experiment: purified protein, by the assay type. To be noted: other: dehydrogenation, pH 8.0, 4.5 mM NAD+, calculated assuming 50% D-acid in the racemic mixtures.

Substrate in series [19]: CSCCC(O)C(=O)O
As to the kind of experiment: purified protein, by the assay type. To be noted: other: dehydrogenation, pH 8.0, 4.5 mM NAD+, calculated assuming 50% D-acid in the racemic mixtures.

Substrate in series [20]: CC(C)CC(O)C(=O)O
Nature of the series: purified protein, by the assay type. To be noted: other: dehydrogenation, pH 8.0, 4.5 mM NAD+, calculated assuming 50% D-acid in the racemic mixtures.

Substrate in series [21]: CCCC(O)C(=O)O
Nature of the series: purified protein, by the assay type. To be noted: other: dehydrogenation, pH 8.0, 4.5 mM NAD+, calculated assuming 50% D-acid in the racemic mixtures.

Substrate in series [22]: CC(C)C[C@@H](O)C(=O)O
Nature of the series: purified protein, by the assay type. To be noted: other: dehydrogenation, pH 8.0, 4.5 mM NAD+, calculated assuming 50% D-acid in the racemic mixtures.

Regarding `CC(C)CC(=O)C(=O)O` [2-keto-4-methylpentanoic acid], in [1], the “Rotation of Production Solution” value was -0.047 °, the “% conversion” value is 100% and the Product concentration was found to be 7.0 mM.

For the molecule `NC(=O)c1ccc[n+]([C@@H]2O[C@H](COP(=O)([O-])OP(=O)(O)OC[C@H]3O[C@@H](n4cnc5c(N)ncnc54)[C@H](OP(=O)(O)O)[C@@H]3O)[C@@H](O)[C@H]2O)c1` [NADP], the “Replacement of the coenzyme NAD+” value in series [2] (checked at test concentrations up to 10 mM) was “cannot replace”.

On to `CSCCC(=O)C(=O)O` [2-keto-4-(methylmercapto)-butyric acid], for which, in [1], the “Rotation of Production Solution” value was -0.071 °, the “% conversion” value stood at 98% and the Product concentration came to 6.9 mM.

Take `NC(=O)c1ccc[n+]([C@@H]2O[C@H](COP(=O)([O-])OP(=O)(O)OC[C@H]3O[C@@H](n4cnc5c(N)ncnc54)[C@H](O)[C@@H]3O)[C@@H](O)[C@H]2O)c1` [NAD^+, nicotinamide-adeninedinucleotide]: in series [2] (pH 8.0, 12 mM D,L-2-hydroxy-4-methylpentanoic acid), the “NAD+ concentration at which the optimum conversion is reached” value is 4.5 mM.

`O=C(O)C(=O)Cc1ccccc1` [2-keto-3-phenylpropionic acid]: in series [1], the “Rotation of Production Solution” value was -0.115 °, the “% conversion” value stood at 100% and the Product concentration turned out to be 7.0 mM.

Consider `NC(=O)C1=CN([C@@H]2O[C@H](COP(=O)(O)OP(=O)(O)OC[C@H]3O[C@@H](n4cnc5c(N)ncnc54)[C@H](OP(=O)(O)O)[C@@H]3O)[C@@H](O)[C@H]2O)C=CC1` [NADPH], for which the “Replacement of the coenzyme NADH” value in series [3] (checked up to a test concentration of 0.2 mM) is “cannot replace”.

In the case of `NC(=O)C1=CN([C@@H]2O[C@H](COP(=O)(O)OP(=O)(O)OC[C@H]3O[C@@H](n4cnc5c(N)ncnc54)[C@H](O)[C@@H]3O)[C@@H](O)[C@H]2O)C=CC1` [NADH], the “NADH concentration at which the optimal reaction velocity was reached” value in series [3] (pH 7.0, 0.7 mM 2-keto-4-methylpentanoic acid) is recorded as 0.10 mM.

B1: D-2-hydroxy-4-methylpentanoic acid dehydrogenase (Lacticaseibacillus paracasei) (protein)
chain: MKIIAYGARVDEIQYFKQWAKDTGNTLEYHTEFLDENTVEWAKGFDGINSLQTTPYAAGVFEKMHAYGIKFLTIRNVGTDNIDMTAMKQYGIRLSNVPAYSPAAIAEFALTDTLYLLRNMGKVQAQLQAGDYEKAGTFIGKELGQQTVGVMGTGHIGQVAIKLFKGFGAKVIAYDPYPMKGDHPDFDYVSLEDLFKQSDVIDLHVPGIEQNTHIINEAAFNLMKPGAIVINTARPNLIDTQAMLSNLKSGKLAGVGIDTYEYETEDLLNLAKHGSFKDPLWDELLGMPNVVLSPHIAYYTETAVHNMVYFSLQHLVDFLTKGETSTEVTGPAK
notes: 500 g Lactobacillus casei ssp. pseudoplantarum (DSM 20008) wet mass was suspended in 50 mM phosphate buffer; endogenous in cells; host or cells: Lactobacillus casei ssp. pseudoplantarum DSM 20008, enzyme isolated from the cells grown in house
A word on the Km: it is the substrate concentration at which the rate is half of its maximum. As a reminder, the Vmax is the rate approached at saturating substrate. For B1, the Michaelis constant (Km) in series [4] amounted to 2.2 mM; in series [5], 620 µM; in [6], 60 µM; in series [7], 400 µM; in series [8] it was 110 µM; in series [9], 4.8 mM. The Km in series [10] is 110 µM; in [11], 310 µM; in series [12], 1.7 mM; in [13] it was 150 µM; in series [14], 470 µM; in series [15], 0.010 mM. Further, the Km in [16] is 310 µM; in series [17], 0.45 mM; in series [18], 1.1 mM; in series [19] it was 1.5 mM; in [20], 1.4 mM; in [21], 700 µM. Further, in series [22], the Km is 1.4 mM. Besides, the Vmax in series [4] turned out to be 26.2 µmol/min/mg; in series [5], 82.1 µmol/min/mg; in series [6], 27.4 µmol/min/mg; in [7], 104.5 µmol/min/mg; in [8], 59.1 µmol/min/mg; in series [9], 16.9 µmol/min/mg. The Vmax in series [10] is 58.4 µmol/min/mg; in series [11], 54.0 µmol/min/mg; in series [12], 45.9 µmol/min/mg; in [13], 304.4 µmol/min/mg; in series [14] it was 11.3 µmol/min/mg; in series [16] it was 10.0 µmol/min/mg. Further, the Vmax in [18] was 32.6 µmol/min/mg; in [19], 2.6 µmol/min/mg; in [20] it was 20.2 µmol/min/mg; in series [21], 10.8 µmol/min/mg; in [22], 20.2 µmol/min/mg.
